Two molecules from publication PMC9484695, “The evolutionary conserved proteins CEP90, FOPNL, and OFD1 recruit centriolar distal appendage proteins to initiate their assembly” (PLoS Biology, 2022) can be followed below.

The experiment deals with T1, CEP90 (overexpressed) (UniProt Q8WXW3 1-757).
T1 construct: CEP90 (PIBF1), cDNA clone from Dharmacon horizondiscovery; no tag is named; also called overexpressed CEP90; source: U2OS, transfected (lipofectamine 2000), in cells
T1 sequence (looked up): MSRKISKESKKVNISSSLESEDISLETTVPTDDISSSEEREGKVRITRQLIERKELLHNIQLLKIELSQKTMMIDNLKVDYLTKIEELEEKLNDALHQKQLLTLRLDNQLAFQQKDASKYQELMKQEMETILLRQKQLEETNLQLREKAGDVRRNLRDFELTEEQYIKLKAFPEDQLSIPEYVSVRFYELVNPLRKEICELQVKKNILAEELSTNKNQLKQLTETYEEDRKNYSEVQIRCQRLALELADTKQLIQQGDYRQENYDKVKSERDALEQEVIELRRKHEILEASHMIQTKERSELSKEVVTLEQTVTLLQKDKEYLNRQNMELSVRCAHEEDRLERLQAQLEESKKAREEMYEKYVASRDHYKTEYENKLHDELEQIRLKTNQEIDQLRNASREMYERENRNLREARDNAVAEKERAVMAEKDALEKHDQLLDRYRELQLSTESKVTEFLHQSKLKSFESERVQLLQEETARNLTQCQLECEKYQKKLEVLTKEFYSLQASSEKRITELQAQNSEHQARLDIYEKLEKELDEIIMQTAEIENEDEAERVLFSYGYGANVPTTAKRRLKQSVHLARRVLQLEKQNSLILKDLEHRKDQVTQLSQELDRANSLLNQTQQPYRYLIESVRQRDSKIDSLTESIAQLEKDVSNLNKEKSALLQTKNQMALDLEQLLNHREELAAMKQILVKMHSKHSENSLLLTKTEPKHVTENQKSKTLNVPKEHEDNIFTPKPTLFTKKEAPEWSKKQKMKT
Briefly: microtubule recruitment (displacement) assay; U2OS cotransfected with MNR-GFP and CEP90, OFD1 mCherry or myc-FOPNL, 24 h; endogenous OFD1, CEP90, CEP83, CEP89, CEP164 stained; percent of cells with the endogenous protein on microtubules, 100 < N < 150 cells per condition, 3 experiments. The settings on record: partners not purified.

B1: OFD1 (endogenous) (natural protein, UniProt O75665 1-1012, looked up)
chain: MMAQSNMFTVADVLSQDELRKKLYQTFKDRGILDTLKTQLRNQLIHELMHPVLSGELQPRSISVEGSSLLIGASNSLVADHLQRCGYEYSLSVFFPESGLAKEKVFTMQDLLQLIKINPTSSLYKSLVSGSDKENQKGFLMHFLKELAEYHQAKESCNMETQTSSTFNRDSLAEKLQLIDDQFADAYPQRIKFESLEIKLNEYKREIEEQLRAEMCQKLKFFKDTEIAKIKMEAKKKYEKELTMFQNDFEKACQAKSEALVLREKSTLERIHKHQEIETKEIYAQRQLLLKDMDLLRGREAELKQRVEAFELNQKLQEEKHKSITEALRRQEQNIKSFEETYDRKLKNELLKYQLELKDDYIIRTNRLIEDERKNKEKAVHLQEELIAINSKKEELNQSVNRVKELELELESVKAQSLAITKQNHMLNEKVKEMSDYSLLKEEKLELLAQNKLLKQQLEESRNENLRLLNRLAQPAPELAVFQKELRKAEKAIVVEHEEFESCRQALHKQLQDEIEHSAQLKAQILGYKASVKSLTTQVADLKLQLKQTQTALENEVYCNPKQSVIDRSVNGLINGNVVPCNGEISGDFLNNPFKQENVLARMVASRITNYPTAWVEGSSPDSDLEFVANTKARVKELQQEAERLEKAFRSYHRRVIKNSAKSPLAAKSPPSLHLLEAFKNITSSSPERHIFGEDRVVSEQPQVGTLEERNDVVEALTGSAASRLRGGTSSRRLSSTPLPKAKRSLESEMYLEGLGRSHIASPSPCPDRMPLPSPTESRHSLSIPPVSSPPEQKVGLYRRQTELQDKSEFSDVDKLAFKDNEEFESSFESAGNMPRQLEMGGLSPAGDMSHVDAAAAAVPLSYQHPSVDQKQIEEQKEEEKIREQQVKERRQREERRQSNLQEVLERERRELEKLYQERKMIEESLKIKIKKELEMENELEMSNQEIKDKSAHSENPLEKYMKIIQQEQDQESADKSSKKMVQEGSLVDTLQSSDKVESLTGFSHEELDDSW
notes: OFD1, endogenous human protein; source: endogenous: HEK293 Flp-In cells (BioID); Hela Kyoto lysate (co-IP); U2OS cells (microtubule recruitment assay)
Consider B1, for which the “percent of cells with the endogenous protein on microtubules” value came to 63.3%.

B2: CEP83 (endogenous) (natural protein, human (endogenous in U2OS), UniProt Q9Y592 1-701, looked up)
chain: MVVSTFTDMDTFPNNFPPGGDSGLTGSQSEFQKMLIDERLRCEHHKANYQTLKAEHTRLQNEHVKLQNELKHLFNEKQTQQEKLQLLLEELRGELVEKTKDLEEMKLQILTPQKLELLRAQIQQELETPMRERFRNLDEEVEKYRAVYNKLRYEHTFLKSEFEHQKEEYARILDEGKIKYESEIARLEEDKEELRNQLLNVDLTKDSKRVEQLAREKVYLCQKLKGLEAEVAELKAEKENSEAQVENAQRIQVRQLAEMQATVRSLEAEKQSANLRAERLEKELQSSSEQNTFLINKLHKAEREINTLSSKVKELKHSNKLEITDIKLETARAKSELERERNKIQSELDGLQSDNEILKAAVEHHKVLLVEKDRELIRKVQAAKEEGYQKLVVLQDEKLELENRLADLEKMKVEHDVWRQSEKDQYEEKLRASQMAEEITRKELQSVRLKLQQQIVTIENAEKEKNENSDLKQQISSLQIQVTSLAQSENDLLNSNQMLKEMVERLKQECRNFRSQAEKAQLEAEKTLEEKQIQWLEEKHKLHERITDREEKYNQAKEKLQRAAIAQKKRKSLHENKLKRLQEKVEVLEAKKEELETENQVLNRQNVPFEDYTRLQKRLKDIQRRHNEFRSLILVPNMPPTASINPVSFQSSAMVPSMELPFPPHMQEEQHQRELSLLRKRLEELETTQRKQLEELGSSGE
notes: CEP83, endogenous human protein; also called endogenous CEP83; source: endogenous, U2OS cells
Consider B2, for which the “percent of cells with the endogenous protein on microtubules” value came to 66.7%.
